Experimental findings from publication PMC5771497 are described below.

Data set [1] deals with T1, PRC2 5-mer (EZH2-EED-SUZ12-RBBP4-AEBP2) (Homo sapiens, UniProt Q15910-2;O75530;Q15022;Q09028;Q6ZN18 1-751;1-441;1-739;1-425;1-517). Kind of data set: EMSA.
The target of data set [2] is T1, PRC2 5-mer (EZH2-EED-SUZ12-RBBP4-AEBP2). Kind of data set: competition.
Data set [3] shares this target. Kind of data set: competition. The source holds these as a separate data set.
The target is the same in data set [4]. Kind of data set: fluorescence polarization.

B1: (mCpG)24 dsDNA (dsDNA)
DNA 1: CGCGCGCGCGCGCGCGCGCGCGCGCGCGCGCGCGCGCGCGCGCGCGCG
DNA 2: CGCGCGCGCGCGCGCGCGCGCGCGCGCGCGCGCGCGCGCGCGCGCGCG
modifications: 5-methyl-C at CpG
In turn, B1 returned a Kd in data set [1] of 11.3 ± 6.2 nM.

B2: (GGAA)10 RNA (structured_RNA)
RNA: GGAAGGAAGGAAGGAAGGAAGGAAGGAAGGAAGGAAGGAA
As to B2, the binding result in data set [2] is “binds”.

B3: Poly(A)40 RNA (ssRNA)
RNA: AAAAAAAAAAAAAAAAAAAAAAAAAAAAAAAAAAAAAAAA
For B3, the binding result in data set [3] is recorded as “no binding”.

B4: (CG)30 dsDNA (dsDNA)
DNA 1: CGCGCGCGCGCGCGCGCGCGCGCGCGCGCGCGCGCGCGCGCGCGCGCGCGCGCGCGCGCG
DNA 2: CGCGCGCGCGCGCGCGCGCGCGCGCGCGCGCGCGCGCGCGCGCGCGCGCGCGCGCGCGCG
As for B4, the binding result in data set [4] was “binds”.
